Test results from patent publication US11136633.
Positions count from the first letter of the chain named. In names and notes the source's numbering stands. Read-outs that look alike come from different tables or passages of the source.

T1: 5T4 (on 5T4-expressing MDA-MB-468 cells) (human, UniProt Q13641 32-420)
T1 sequence (looked up): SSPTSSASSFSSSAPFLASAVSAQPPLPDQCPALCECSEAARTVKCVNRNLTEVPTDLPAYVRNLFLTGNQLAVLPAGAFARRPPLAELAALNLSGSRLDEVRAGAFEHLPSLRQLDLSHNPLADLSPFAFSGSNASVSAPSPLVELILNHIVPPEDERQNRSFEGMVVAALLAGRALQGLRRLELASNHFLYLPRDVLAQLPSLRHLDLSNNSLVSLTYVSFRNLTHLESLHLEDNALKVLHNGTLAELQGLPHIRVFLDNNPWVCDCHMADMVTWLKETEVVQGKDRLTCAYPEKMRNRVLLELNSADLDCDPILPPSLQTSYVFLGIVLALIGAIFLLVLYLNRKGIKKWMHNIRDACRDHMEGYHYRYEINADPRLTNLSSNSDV

B1: H8-HC40, engineered cysteine anti-5T4 (HC S40C) H8 antibody conjugated to vc-seco-DUBA (antibody, human IgG1, kappa, V domains shown)
VH: QVQLVQSGAEVKKPGASVKVSCKASGYSFTGYYMHWVKQCPGQGLEWIGRINPNNGVTLYNQKFKDRVTMTRDTSISTAYMELSRLRSDDTAVYYCARSTMITNYVMDYWGQGTLVTVSS
VL: DIVMTQSPDSLAVSLGERATINCKASQSVSNDVAWYQQKPGQSPKLLISYTSSRYAGVPDRFSGSGSGTDFTLTISSLQAEDVAVYFCQQDYNSPPTFGGGTKLEIKR
modifications: vc-seco-DUBA linker drug on engineered Cys 40; average DAR 1.7
B2: wild-type H8 antibody (anti-5T4) (antibody, human IgG1, kappa, V domains shown)
VH: B1 VH with C40S
VL: B1 VL
notes: Naked antibody, human IgG1 kappa
B3: H8-HC41, engineered cysteine anti-5T4 (VH P41C) H8 antibody conjugated to vc-seco-DUBA (antibody, human IgG1, kappa, V domains shown)
VH: B1 VH with C40S, P41C
VL: B1 VL
modifications: vc-seco-DUBA linker drug on engineered Cys 41; average DAR 1.7
B4: ADC-HC41 (SYD1091), engineered cysteine anti-PSMA (VH S41C) antibody conjugated to vc-seco-DUBA (antibody, human IgG1, kappa, V domains shown)
VH: EVQLVQSGAEVKKPGASVKISCKTSGYTFTEYTIHWVKQACGKGLEWIGNINPNNGGTTYNQKFEDRATLTVDKSTSTAYMELSSLRSEDTAVYYCAAGWNFDYWGQGTTVTVSS
VL: DIVMTQSPSSLSASVGDRVTITCKASQDVGTAVDWYQQKPGKAPKLLIYWASTRHTGVPDRFTGSGSGTDFTLTISSLQPEDFADYFCQQYNSYPLTFGGGTKLEIKR
modifications: vc-seco-DUBA linker drug on engineered Cys 41 (Kabat numbering); average DAR 1.7
B5: ADC-HC41 (vc-MMAE), anti-PSMA antibody (HC S41C) conjugated to vc-MMAE (antibody, human IgG1, kappa, V domains shown)
VH: B4 VH
VL: B4 VL
modifications: vc-MMAE linker drug on engineered Cys 41 (Kabat numbering); average DAR 1.8

What was measured:
[1] = target: T1, 5T4 (on 5T4-expressing MDA-MB-468 cells); assay: cell-based or functional assay
[2] = target: T1, 5T4 (on 5T4-expressing MDA-MB-468 cells); assay: cellular binding on 5T4-expressing MDA-MB-468 cells
[3] = target: T2, PSMA (on PSMA-expressing LNCaP-C4.2 cells) (human, UniProt Q04609 1-750); assay: cell-based or functional assay
T2 sequence (Q04609 whole entry): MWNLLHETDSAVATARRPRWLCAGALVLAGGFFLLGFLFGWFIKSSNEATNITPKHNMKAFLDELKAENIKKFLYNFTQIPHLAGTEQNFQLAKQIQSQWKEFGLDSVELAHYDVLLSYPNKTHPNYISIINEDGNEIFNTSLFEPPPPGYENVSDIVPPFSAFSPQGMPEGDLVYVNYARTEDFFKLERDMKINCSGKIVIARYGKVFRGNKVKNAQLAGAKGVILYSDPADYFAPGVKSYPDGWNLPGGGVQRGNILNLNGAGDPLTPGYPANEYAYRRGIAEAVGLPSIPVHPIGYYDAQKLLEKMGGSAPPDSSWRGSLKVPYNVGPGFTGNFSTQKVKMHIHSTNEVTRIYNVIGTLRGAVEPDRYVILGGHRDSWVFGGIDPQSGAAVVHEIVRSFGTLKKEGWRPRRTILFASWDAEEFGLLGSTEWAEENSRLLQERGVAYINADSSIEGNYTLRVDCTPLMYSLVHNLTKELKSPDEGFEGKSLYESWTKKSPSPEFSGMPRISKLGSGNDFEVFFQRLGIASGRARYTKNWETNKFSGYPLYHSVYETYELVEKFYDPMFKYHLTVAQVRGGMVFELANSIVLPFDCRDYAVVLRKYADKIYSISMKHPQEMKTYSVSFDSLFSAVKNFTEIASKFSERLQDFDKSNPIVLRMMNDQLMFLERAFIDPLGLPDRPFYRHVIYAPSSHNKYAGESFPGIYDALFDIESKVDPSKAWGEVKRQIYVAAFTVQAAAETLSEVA

[4] = target: T2, PSMA (on PSMA-expressing LNCaP-C4.2 …); assay: cell-based or functional assay; remark: listed apart in the source

| Binder | % efficacy, in vitro cytotoxicity on MDA-MB-468 at ~100 nM [1] [%] | IC50, in vitro cytotoxicity on 5T4-positive cell line MDA-MB-468 [1] [pM] | also measured |
| --- | --- | --- | --- |
| B1 | 88 | 70 | – |
| B2 | – | – | binding result [2]: binds |
| B3 | 88 | 70 | – |
| B4 | – | – | IC50, in vitro cytotoxicity on PSMA-positive cell line LNCaP-C4.2 [3]: 250 pM |
| B5 | – | – | IC50, in vitro cytotoxicity on PSMA-positive cell line LNCaP-C4.2 [4]: 390 pM |
